# Numbered stars: 1 amine (or outer) side, 2 acyl side, 3 side chain; on linkers, the order of the positions; unused ones are H or OH. Bridge positions count the residues as written; N and C are the ends. Square brackets hold non-standard residues; d marks the D form. Ends that are not written are not given here. * marks the point of attachment. Leu(4-F) = 4-fluoroleucine, CC(C)(F)C[C@H](N[*:1])C(=O)[*:2]; Piperidin‑4‑ylacetic acid = O=C(CC1CCNCC1)*; Pro(4-spirocPr) = O=C(O)[C@@H]1CC2(CC2)CN1; Oic = O=C(O)[C@@H]1C[C@@H]2CCCC[C@@H]2N1; tBuAla = CC(C)(C)C[C@H](N)C(=O)O; Chg = N[C@H](C(=O)O)C1CCCCC1; Pen = CC(C)(S)[C@H](N)C(=O)O; NMePro = CN1CCC[C@H]1C(=O)*; NMeC = CN[C@@H](CS)C(=O)O; NMeA = CN[C@@H](C)C(=O)O; Ahx = NCCCCCC(=O)O; Sar = CNCC(=O)O
# T1: Recombinant human MASP1 enzyme (fragment corresponding to amino acids 297-699, C-terminal His Tag) (human, UniProt P48740 297-699)
# T1 sequence: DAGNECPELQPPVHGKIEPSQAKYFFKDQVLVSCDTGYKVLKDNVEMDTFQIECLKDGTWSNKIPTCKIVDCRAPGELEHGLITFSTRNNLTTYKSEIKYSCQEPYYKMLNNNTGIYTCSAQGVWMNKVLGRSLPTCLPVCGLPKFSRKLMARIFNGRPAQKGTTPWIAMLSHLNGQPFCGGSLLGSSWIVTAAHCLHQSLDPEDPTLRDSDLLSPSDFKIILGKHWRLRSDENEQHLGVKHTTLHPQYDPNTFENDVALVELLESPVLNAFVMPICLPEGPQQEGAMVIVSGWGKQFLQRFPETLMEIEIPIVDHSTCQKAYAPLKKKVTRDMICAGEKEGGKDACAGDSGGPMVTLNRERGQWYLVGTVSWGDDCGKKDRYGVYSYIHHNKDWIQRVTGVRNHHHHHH
# B1: ((N-Me)P)-IC+SRS-((tBu)A)-PPIC+IPD-NH2 (peptide)
# peptide: [NMePro]ICSRS[tBuAla]PPICIPD-NH2
# modifications: disulfide 3-11
# SMILES: CC[C@H](C)[C@H](NC(=O)[C@@H]1CCCN1C)C(=O)N[C@H]1CSSC[C@@H](C(=O)N[C@H](C(=O)N2CCC[C@H]2C(=O)N[C@@H](CC(=O)O)C(N)=O)[C@@H](C)CC)NC(=O)[C@H]([C@@H](C)CC)NC(=O)[C@@H]2CCCN2C(=O)[C@@H]2CCCN2C(=O)[C@H](CC(C)(C)C)NC(=O)[C@H](CO)NC(=O)[C@H](CCCNC(=N)N)NC(=O)[C@H](CO)NC1=O
# B2: (Piperidin-4-ylacetic acid)-IC+SRS-((tBu)A)-PPI-((N-Me)C)+I-NH2 (peptide)
# peptide: {Piperidin‑4‑ylacetic acid}-ICSRS[tBuAla]PPI[NMeC]I-NH2
# modifications: disulfide 2-10
# SMILES: CC[C@H](C)[C@H](NC(=O)[C@@H]1CSSC[C@H](NC(=O)[C@@H](NC(=O)CC2CCNCC2)[C@@H](C)CC)C(=O)N[C@@H](CO)C(=O)N[C@@H](CCCNC(=N)N)C(=O)N[C@@H](CO)C(=O)N[C@@H](CC(C)(C)C)C(=O)N2CCC[C@H]2C(=O)N2CCC[C@H]2C(=O)N[C@@H]([C@@H](C)CC)C(=O)N1C)C(N)=O
# B3: AIC+SRSLPP-(Chg)-C+IPD-NH2 (peptide)
# peptide: AICSRSLPP[Chg]CIPD-NH2
# modifications: disulfide 3-11; N-terminus assumed
# SMILES: CC[C@H](C)[C@H](NC(=O)[C@H](C)N)C(=O)N[C@H]1CSSC[C@@H](C(=O)N[C@H](C(=O)N2CCC[C@H]2C(=O)N[C@@H](CC(=O)O)C(N)=O)[C@@H](C)CC)NC(=O)[C@H](C2CCCCC2)NC(=O)[C@@H]2CCCN2C(=O)[C@@H]2CCCN2C(=O)[C@H](CC(C)C)NC(=O)[C@H](CO)NC(=O)[C@H](CCCNC(=N)N)NC(=O)[C@H](CO)NC1=O
# B4: AIC+SRSLPP-(Chg)-C+I-NH2 (peptide)
# peptide: AICSRSLPP[Chg]CI-NH2
# modifications: disulfide 3-11; N-terminus assumed
# SMILES: CC[C@H](C)[C@H](NC(=O)[C@@H]1CSSC[C@H](NC(=O)[C@@H](NC(=O)[C@H](C)N)[C@@H](C)CC)C(=O)N[C@@H](CO)C(=O)N[C@@H](CCCNC(=N)N)C(=O)N[C@@H](CO)C(=O)N[C@@H](CC(C)C)C(=O)N2CCC[C@H]2C(=O)N2CCC[C@H]2C(=O)N[C@@H](C2CCCCC2)C(=O)N1)C(N)=O
# B5: ((N-Me)G)-IC+SRSLP-(Oic)-I-(Pen)+I-NH2 (peptide)
# peptide: [Sar]ICSRSLP[Oic]I[Pen]I-NH2
# modifications: disulfide 3-11; N-terminus assumed
# SMILES: CC[C@H](C)[C@H](NC(=O)[C@H]1NC(=O)[C@H]([C@@H](C)CC)NC(=O)[C@@H]2C[C@@H]3CCCC[C@@H]3N2C(=O)[C@@H]2CCCN2C(=O)[C@H](CC(C)C)NC(=O)[C@H](CO)NC(=O)[C@H](CCCNC(=N)N)NC(=O)[C@H](CO)NC(=O)[C@@H](NC(=O)[C@@H](NC(=O)CNC)[C@@H](C)CC)CSSC1(C)C)C(N)=O
# B6: IC+SRS-((tBu)A)-PPI-(Pen)+IP-OH (peptide)
# peptide: ICSRS[tBuAla]PPI[Pen]IP-OH
# modifications: disulfide 2-10; N-terminus assumed
# SMILES: CC[C@H](C)[C@H](N)C(=O)N[C@H]1CSSC(C)(C)[C@@H](C(=O)N[C@H](C(=O)N2CCC[C@H]2C(=O)O)[C@@H](C)CC)NC(=O)[C@H]([C@@H](C)CC)NC(=O)[C@@H]2CCCN2C(=O)[C@@H]2CCCN2C(=O)[C@H](CC(C)(C)C)NC(=O)[C@H](CO)NC(=O)[C@H](CCCNC(=N)N)NC(=O)[C@H](CO)NC1=O
# B7: ((N-Me)G)-IC+SRS-((tBu)A)-PPIC+IPD-OH (peptide)
# peptide: [Sar]ICSRS[tBuAla]PPICIPD-OH
# modifications: disulfide 3-11; N-terminus assumed
# SMILES: CC[C@H](C)[C@H](NC(=O)CNC)C(=O)N[C@H]1CSSC[C@@H](C(=O)N[C@H](C(=O)N2CCC[C@H]2C(=O)N[C@@H](CC(=O)O)C(=O)O)[C@@H](C)CC)NC(=O)[C@H]([C@@H](C)CC)NC(=O)[C@@H]2CCCN2C(=O)[C@@H]2CCCN2C(=O)[C@H](CC(C)(C)C)NC(=O)[C@H](CO)NC(=O)[C@H](CCCNC(=N)N)NC(=O)[C@H](CO)NC1=O
# B8: (Ahx)-IC+SRS-((tBu)A)-PPI-(Pen)+IP-NH2 (peptide)
# peptide: [Ahx]ICSRS[tBuAla]PPI[Pen]IP-NH2
# modifications: disulfide 3-11; N-terminus assumed
# SMILES: CC[C@H](C)[C@H](NC(=O)CCCCCN)C(=O)N[C@H]1CSSC(C)(C)[C@@H](C(=O)N[C@H](C(=O)N2CCC[C@H]2C(N)=O)[C@@H](C)CC)NC(=O)[C@H]([C@@H](C)CC)NC(=O)[C@@H]2CCCN2C(=O)[C@@H]2CCCN2C(=O)[C@H](CC(C)(C)C)NC(=O)[C@H](CO)NC(=O)[C@H](CCCNC(=N)N)NC(=O)[C@H](CO)NC1=O
# B9: AIC+SRSLP-((6S)-5-Azaspiro[2.4]heptane-6-carboxylic acid)-IC+IPD-NH2 (peptide)
# peptide: AICSRSLP[Pro(4-spirocPr)]ICIPD-NH2
# modifications: disulfide 3-11; N-terminus assumed
# SMILES: CC[C@H](C)[C@H](NC(=O)[C@H](C)N)C(=O)N[C@H]1CSSC[C@@H](C(=O)N[C@H](C(=O)N2CCC[C@H]2C(=O)N[C@@H](CC(=O)O)C(N)=O)[C@@H](C)CC)NC(=O)[C@H]([C@@H](C)CC)NC(=O)[C@@H]2CC3(CC3)CN2C(=O)[C@@H]2CCCN2C(=O)[C@H](CC(C)C)NC(=O)[C@H](CO)NC(=O)[C@H](CCCNC(=N)N)NC(=O)[C@H](CO)NC1=O
# B10: ((N-Me)A)-IC+SRS-((tBu)A)-PPIC+IPD-NH2 (peptide)
# peptide: [NMeA]ICSRS[tBuAla]PPICIPD-NH2
# modifications: disulfide 3-11; N-terminus assumed
# SMILES: CC[C@H](C)[C@H](NC(=O)[C@H](C)NC)C(=O)N[C@H]1CSSC[C@@H](C(=O)N[C@H](C(=O)N2CCC[C@H]2C(=O)N[C@@H](CC(=O)O)C(N)=O)[C@@H](C)CC)NC(=O)[C@H]([C@@H](C)CC)NC(=O)[C@@H]2CCCN2C(=O)[C@@H]2CCCN2C(=O)[C@H](CC(C)(C)C)NC(=O)[C@H](CO)NC(=O)[C@H](CCCNC(=N)N)NC(=O)[C@H](CO)NC1=O
# B11: IC+SRS-((tBu)A)-PP-I-((N-Me)C)+IPD-NH2 (peptide)
# peptide: ICSRS[tBuAla]PPI[NMeC]IPD-NH2
# modifications: disulfide 2-10; N-terminus assumed
# SMILES: CC[C@H](C)[C@H](N)C(=O)N[C@H]1CSSC[C@@H](C(=O)N[C@H](C(=O)N2CCC[C@H]2C(=O)N[C@@H](CC(=O)O)C(N)=O)[C@@H](C)CC)N(C)C(=O)[C@H]([C@@H](C)CC)NC(=O)[C@@H]2CCCN2C(=O)[C@@H]2CCCN2C(=O)[C@H](CC(C)(C)C)NC(=O)[C@H](CO)NC(=O)[C@H](CCCNC(=N)N)NC(=O)[C@H](CO)NC1=O
# B12: kIC+SRS-((tBu)A)-PPI-(Pen)+I-NH2 (peptide)
# peptide: [dK]ICSRS[tBuAla]PPI[Pen]I-NH2
# modifications: disulfide 3-11; N-terminus assumed
# SMILES: CC[C@H](C)[C@H](NC(=O)[C@H]1NC(=O)[C@H]([C@@H](C)CC)NC(=O)[C@@H]2CCCN2C(=O)[C@@H]2CCCN2C(=O)[C@H](CC(C)(C)C)NC(=O)[C@H](CO)NC(=O)[C@H](CCCNC(=N)N)NC(=O)[C@H](CO)NC(=O)[C@@H](NC(=O)[C@@H](NC(=O)[C@H](N)CCCCN)[C@@H](C)CC)CSSC1(C)C)C(N)=O
# B13: AIC+SRS-((4-Fluoro)L)-PPIC+IPD-NH2 (peptide)
# peptide: AICSRS[Leu(4-F)]PPICIPD-NH2
# modifications: disulfide 3-11; N-terminus assumed
# SMILES: CC[C@H](C)[C@H](NC(=O)[C@H](C)N)C(=O)N[C@H]1CSSC[C@@H](C(=O)N[C@H](C(=O)N2CCC[C@H]2C(=O)N[C@@H](CC(=O)O)C(N)=O)[C@@H](C)CC)NC(=O)[C@H]([C@@H](C)CC)NC(=O)[C@@H]2CCCN2C(=O)[C@@H]2CCCN2C(=O)[C@H](CC(C)(C)F)NC(=O)[C@H](CO)NC(=O)[C@H](CCCNC(=N)N)NC(=O)[C@H](CO)NC1=O
# B14: AIC+SRSNPPI-(Pen)+IPD-NH2 (peptide)
# peptide: AICSRSNPPI[Pen]IPD-NH2
# modifications: disulfide 3-11; N-terminus assumed
# SMILES: CC[C@H](C)[C@H](NC(=O)[C@H](C)N)C(=O)N[C@H]1CSSC(C)(C)[C@@H](C(=O)N[C@H](C(=O)N2CCC[C@H]2C(=O)N[C@@H](CC(=O)O)C(N)=O)[C@@H](C)CC)NC(=O)[C@H]([C@@H](C)CC)NC(=O)[C@@H]2CCCN2C(=O)[C@@H]2CCCN2C(=O)[C@H](CC(N)=O)NC(=O)[C@H](CO)NC(=O)[C@H](CCCNC(=N)N)NC(=O)[C@H](CO)NC1=O
# Target: T1, Recombinant human MASP1 enzyme …
# Test: cell-based or functional assay
row,Binder,human MASP1 IC50 [nM]
1,B1,9.3
2,B2,10
3,B3,9.8
4,B4,8.9
5,B5,8.45
6,B6,10
7,B7,8.8
8,B8,9.9
9,B9,8.5
10,B10,9.5
11,B11,10
12,[Sar]ICSRSLP[Oic]I[Pen]IP-NH2 (disulfide 3-11; also: acetate salt) [((N-Me)G)-IC+SRSLP-(Oic)-I-(Pen)+IP-NH2 (Acetate)],1.4
13,B12,10
14,B13,8.9
15,B14,9.4

# Target: Recombinant human MASP2 enzyme (fragment corresponding to amino acids 297-686, C-terminal His Tag) (human, UniProt O00187 297-686)
# Test: cell-based or functional assay
# Chain of Recombinant human MASP2 enzyme (fragment corresponding to amino acids 297-686, C-terminal His Tag) (O00187 other isoform, or with tags, fused parts or gaps limits assumed): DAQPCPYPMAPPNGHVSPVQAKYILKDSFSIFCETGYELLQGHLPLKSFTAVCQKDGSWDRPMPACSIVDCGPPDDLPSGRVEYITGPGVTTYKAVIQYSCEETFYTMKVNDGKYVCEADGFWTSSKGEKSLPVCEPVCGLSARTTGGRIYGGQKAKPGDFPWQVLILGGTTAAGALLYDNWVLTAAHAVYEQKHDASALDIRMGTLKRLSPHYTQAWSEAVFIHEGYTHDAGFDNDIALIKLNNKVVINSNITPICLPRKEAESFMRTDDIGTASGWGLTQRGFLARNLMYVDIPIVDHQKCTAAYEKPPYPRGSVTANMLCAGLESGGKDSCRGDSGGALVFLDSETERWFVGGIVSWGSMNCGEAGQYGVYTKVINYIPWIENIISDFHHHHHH
row,Binder,human MASP2 IC50 [nM]
1,B1,260
2,B2,32
3,B3,73.5
4,B4,92
5,B5,295
6,B6,400
7,B7,2600
8,B8,16
9,B9,33
10,B10,440
11,B11,620
12,[Sar]ICSRSLP[Oic]I[Pen]IP-NH2 (disulfide 3-11; also: acetate salt) [((N-Me)G)-IC+SRSLP-(Oic)-I-(Pen)+IP-NH2 (Acetate)],37
13,B12,110
14,B13,300
15,B14,480
